According to WO2011080050A2 (dated 2011):
Numbering of substitutions follows the chain as printed.

T1: natural human CCL21 (secreted and isolated from transfected HEK-293T cells) (human, UniProt O00585 24-134)
T1 sequence: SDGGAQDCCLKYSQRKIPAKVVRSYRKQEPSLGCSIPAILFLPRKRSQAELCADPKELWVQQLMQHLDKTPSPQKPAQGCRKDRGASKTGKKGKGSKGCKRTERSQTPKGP

T2: cynomolgus monkey CCL21 (cynomolgus monkey, UniProt Q8HYP5 24-131 (rhesus entry))
T2 sequence: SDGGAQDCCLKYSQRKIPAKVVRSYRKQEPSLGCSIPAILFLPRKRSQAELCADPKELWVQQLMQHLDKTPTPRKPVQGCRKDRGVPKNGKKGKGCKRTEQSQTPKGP

T3: human CCL21 (human, UniProt O00585 24-134)
T3 sequence: T1 sequence

B1: MOR06935_g3-23_g3j (antibody, V domains shown)
VH: EVQLLESGGGLVQPGGSLRLSCAASGFTFNSYSMSWVRQAPGKGLEWVSAISMEGYSKSYADSVKGRFTISRDNSKNTLYLQMNSLRAEDTAVYYCARGYGYYFDVWGQGTLVTVSS
VL: SYELTQPLSVSVALGQTARITCGGDSIGSQYASWYQQKPGQAPVLVIYDDNERPSGIPERFSGSNSGNTATLTISRAQAGDEADYYCGSWDSNPTHVFGGGTKLTVLG
notes: also called QBP359; FW repaired germlined MOR06935
B2: MOR08378_g5-51_g2a2 (antibody, human IgG1, lambda, V domains shown)
VH: EVQLVQSGAEVKKPGESLKISCKGSGYSFNNYWISWVRQMPGKGLEWMGIIDPTNSQTTYSPSFQGQVTISADKSISTAYLQWSSLKASDTAMYYCARDGYPIFDYWGQGTLVTVSS
VL: QSALTQPASVSGSPGQSITISCTGTSSDLGGYNYVSWYQQHPGKAPKLMIYDVNYRPSGVSNRFSGSKSGNTASLTISGLQAEDEADYYCSSYTYYSNSGVFGGGTKLTVLG
B3: MOR08382_g3-23_gL6 (antibody, human IgG1, kappa, V domains shown)
VH: EVQLLESGGGLVQPGGSLRLSCAASGFTFSSYWLNWVRQAPGKGLEWVSYISNQGDDTSYADSVKGRFTISRDNSKNTLYLQMNSLRAEDTAVYYCARDYQYIGDSFDIWGQGTLVTVSS
VL: EIVLTQSPATLSLSPGERATLSCRASQYVSYVSLAWYQQKPGQAPRLLIYDASNRATGIPARFSGSGSGTDFTLTISSLEPEDFAVYYCQQYDDLSYTFGQGTKVEIKR
B4: MOR08389_g3-23_g3j (antibody, human IgG1, lambda, V domains shown)
VH: B1 VH
VL: B1 VL with G88S, S92M, N93D, P94A, T95V, H96N

Key:
[1] = target: T1, natural human CCL21 (secreted and …); assay: cell-based or functional assay
[2] = target: T2, cynomolgus monkey CCL21; assay: cell-based or functional assay
[3] = target: T3, human CCL21; assay: cell-based or functional assay
[4] = target: CCL21 of the four chemotaxis assays (recombinant human, recombinant cynomolgus monkey, natural human); assay: cell-based or functional assay
[5] = target: T2, cynomolgus monkey CCL21; assay: SPR (Biacore T100), antibody captured on protein A, CCL21 as analyte, 1:1 model, two experiments
[6] = target: T3, human CCL21; assay: SPR (Biacore T100), antibody captured on protein A, CCL21 as analyte, 1:1 model, three experiments

Row | Binder | % inhibition of migration, natural hCCL21, H9 cells, 1:1 molar ratio (4th cell) [1] | % inhibition of migration, natural hCCL21, H9 cells, IgG at 2uM (4th cell) [1] | % inhibition of migration, recombinant cCCL21, H9 cells, 1:1 molar ratio (3rd cell) [2] | % inhibition of migration, recombinant cCCL21, H9 cells, IgG at 2uM (3rd cell) [2] | IC50, inhibition of CCL21-mediated calcium mobilization, cynomolgus monkey CCL21 on CHO-K1 cells with cynomolgus monkey CCR7 [2] | IC50, inhibition of CCL21-mediated calcium mobilization, cynomolgus monkey CCL21 on CHO-K1 cells with human CCR7 [2] | % inhibition of migration, recombinant hCCL21, H9 cells, 1:1 molar ratio (1st cell) [3] | % inhibition of migration, recombinant hCCL21, H9 cells, IgG at 2uM (1st cell) [3] | % inhibition of migration, recombinant hCCL21, primary human T cells, 1:1 molar ratio (2nd cell) [3] | % inhibition of migration, recombinant hCCL21, primary human T cells, IgG at 2uM (2nd cell) [3] | IC50, inhibition of CCL21-mediated calcium mobilization, human CCL21 on CHO-K1 cells with cynomolgus monkey CCR7 [3] | IC50, inhibition of CCL21-mediated calcium mobilization, human CCL21 on CHO-K1 cells with human CCR7 [3] | % inhibition of CCL21 mediated chemotaxis at 1:1 molar ratio, large scale batch, four assays [4] | IC50, inhibition of CCL21 mediated chemotaxis, large scale batch, four assays [4] | Kd [5] | kon [5] | Kd [6] | kon [6] | IC50, inhibition of natural hCCL21-mediated migration of H9 cells [1] | IC50, inhibition of recombinant hCCL21-mediated migration of H9 cells [3]
1 | B1 | 77% | 100% | 96% | 100% | 62 nM | 211 nM | 61% | 100% | 86% | 100% | 252 nM | 341 nM | 81 to 100% | 11 to 45 nM | 0.026 nM | 9.1e+07 M⁻¹ s⁻¹ | 0.03 nM | 6.8e+07 M⁻¹ s⁻¹ |  | 
2 | B2 | 64% | 100% | 100% | 100% |  |  | 87% | 100% | 100% | 100% |  |  |  |  |  |  |  |  | 69 nM | 49.7 nM
3 | B3 | 70% | 100% | 100% | 100% |  |  | 97% | 97% | 100% | 100% |  |  |  |  |  |  |  |  | 66 nM | 23.7 nM
4 | B4 | 82% | 100% | 100% | 100% |  |  | 94% | 94% | 100% | 100% |  |  |  |  |  |  |  |  | 34 nM | 54.1 nM
